The chains are these.
B1: PIP5K1C peptide 642-657 (Phosphatidylinositol 4-phosphate 5-kinase type-1 gamma), 16-mer library wild type / TLN1 PTB (TLN1 Phosphotyrosine-binding (PTB) domain, residues 309-401) (parent complex)
chain 1: TDERSWVYSPLHYSAQ
chain 2: GVSFFLVKEKMKGKNKLVPRLLGITKECVMRVDEKTKEVIQEWNLTNIKRWAASPKSFTLDFGDYQDGYYSVQTTEGEQIAQLIAGYIDIILK

The variants in this assay derive from B1. The experiment in a line: proteomic peptide phage display deep mutational scan (ProP-PD DMS): M13 P8 16-mer library selected against immobilised GST-tagged bait for four days (rounds), NGS of the eluted pools per day and pseudo-replica; bait immobilised on MaxiSorp plates (10 µg), library pre-cleared on GST, 2 h binding at 4 °C, five washes; one round per day, days 1-4; value from days 2 and 3.
As for chain 1 H12M, the screen value was 0.0016 average fractional NGS count over selection days 2 and 3 (reads of this peptide / all reads for the bait, averaged over …. For the variant chain 1 H12L, the screen value was 0.00133 average fractional NGS count over selection days 2 and 3 (reads of this peptide / all reads for the bait, averaged over …. On to chain 1 H12F, for which the screen value was 0.00153 average fractional NGS count over selection days 2 and 3 (reads of this peptide / all reads for the bait, averaged over …. As for chain 1 H12S, the screen value is 0.000155 average fractional NGS count over selection days 2 and 3 (reads of this peptide / all reads for the bait, averaged over …. Consider chain 1 V7K, for which the screen value is 0.00287 average fractional NGS count over selection days 2 and 3 (reads of this peptide / all reads for the bait, averaged over …. For chain 1 V7R, the screen value is 0.00391 average fractional NGS count over selection days 2 and 3 (reads of this peptide / all reads for the bait, averaged over …. In the case of chain 1 V7Q it was 0.00122 average fractional NGS count over selection days 2 and 3 (reads of this peptide / all reads for the bait, averaged over …. As for chain 1 V7N, the screen value was 0.0129 average fractional NGS count over selection days 2 and 3 (reads of this peptide / all reads for the bait, averaged over …. Consider chain 1 V7S, for which the screen value was 0.00114 average fractional NGS count over selection days 2 and 3 (reads of this peptide / all reads for the bait, averaged over …. Next, chain 1 V7M: 0.0016 average fractional NGS count over selection days 2 and 3 (reads of this peptide / all reads for the bait, averaged over …; chain 1 E3L: 0.00278 average fractional NGS count over selection days 2 and 3 (reads of this peptide / all reads for the bait, averaged over …. Next, chain 1 E3K: 0.00138 average fractional NGS count over selection days 2 and 3 (reads of this peptide / all reads for the bait, averaged over …. With chain 1 E3P, the screen value was 0.000178 average fractional NGS count over selection days 2 and 3 (reads of this peptide / all reads for the bait, averaged over …. Next, chain 1 E3N: 0.00147 average fractional NGS count over selection days 2 and 3 (reads of this peptide / all reads for the bait, averaged over …; chain 1 E3Q: 0.000394 average fractional NGS count over selection days 2 and 3 (reads of this peptide / all reads for the bait, averaged over …. With chain 1 E3R, the screen value is 0.000973 average fractional NGS count over selection days 2 and 3 (reads of this peptide / all reads for the bait, averaged over …. In the case of chain 1 S14A it was 0.00151 average fractional NGS count over selection days 2 and 3 (reads of this peptide / all reads for the bait, averaged over ….

chain 1 S14Y: the screen value was 0.00168 average fractional NGS count over selection days 2 and 3 (reads of this peptide / all reads for the bait, averaged over ….

chain 1 S14I: the screen value was 0.000211 average fractional NGS count over selection days 2 and 3 (reads of this peptide / all reads for the bait, averaged over …. In the case of chain 1 S14L, the screen value is 0.00127 average fractional NGS count over selection days 2 and 3 (reads of this peptide / all reads for the bait, averaged over …. As for chain 1 S14K, the screen value was 0.000852 average fractional NGS count over selection days 2 and 3 (reads of this peptide / all reads for the bait, averaged over ….

With chain 1 S14P, the screen value was 0.000401 average fractional NGS count over selection days 2 and 3 (reads of this peptide / all reads for the bait, averaged over ….

Consider chain 1 S14D, for which the screen value was 0.00662 average fractional NGS count over selection days 2 and 3 (reads of this peptide / all reads for the bait, averaged over …. Take chain 1 L11W: the screen value is 0.000722 average fractional NGS count over selection days 2 and 3 (reads of this peptide / all reads for the bait, averaged over …. In the case of chain 1 L11M it was 0.000374 average fractional NGS count over selection days 2 and 3 (reads of this peptide / all reads for the bait, averaged over …; in that of chain 1 L11G, 0.000282 average fractional NGS count over selection days 2 and 3 (reads of this peptide / all reads for the bait, averaged over ….

As for chain 1 L11H, the screen value is 0.000309 average fractional NGS count over selection days 2 and 3 (reads of this peptide / all reads for the bait, averaged over ….

As for chain 1 Y8F, the screen value is 0.00543 average fractional NGS count over selection days 2 and 3 (reads of this peptide / all reads for the bait, averaged over ….

On to chain 1 Y8V, for which the screen value was 0.0101 average fractional NGS count over selection days 2 and 3 (reads of this peptide / all reads for the bait, averaged over …. Next, chain 1 Y8P: 0.000696 average fractional NGS count over selection days 2 and 3 (reads of this peptide / all reads for the bait, averaged over …; chain 1 Y8N: 0.00782 average fractional NGS count over selection days 2 and 3 (reads of this peptide / all reads for the bait, averaged over …; chain 1 Y8R: 0.0156 average fractional NGS count over selection days 2 and 3 (reads of this peptide / all reads for the bait, averaged over …. Regarding chain 1 Y8D, the screen value was 0.00213 average fractional NGS count over selection days 2 and 3 (reads of this peptide / all reads for the bait, averaged over ….

As to chain 1 Y8Q, the screen value was 0.00124 average fractional NGS count over selection days 2 and 3 (reads of this peptide / all reads for the bait, averaged over ….

chain 1 Y8K: the screen value is 0.00106 average fractional NGS count over selection days 2 and 3 (reads of this peptide / all reads for the bait, averaged over …. Next, chain 1 S5Y: 0.000589 average fractional NGS count over selection days 2 and 3 (reads of this peptide / all reads for the bait, averaged over …; chain 1 S5T: 0.0143 average fractional NGS count over selection days 2 and 3 (reads of this peptide / all reads for the bait, averaged over …. Next, chain 1 S5F: 0.000252 average fractional NGS count over selection days 2 and 3 (reads of this peptide / all reads for the bait, averaged over …. In the case of chain 1 S5A it was 0.0049 average fractional NGS count over selection days 2 and 3 (reads of this peptide / all reads for the bait, averaged over ….

As for chain 1 S5M, the screen value was 0.00508 average fractional NGS count over selection days 2 and 3 (reads of this peptide / all reads for the bait, averaged over ….

As for chain 1 S5V, the screen value was 0.0006 average fractional NGS count over selection days 2 and 3 (reads of this peptide / all reads for the bait, averaged over …. Take chain 1 S5W: the screen value is 0.000786 average fractional NGS count over selection days 2 and 3 (reads of this peptide / all reads for the bait, averaged over …. Next, chain 1 S5E: 0.00528 average fractional NGS count over selection days 2 and 3 (reads of this peptide / all reads for the bait, averaged over …; chain 1 W6R: 0.000143 average fractional NGS count over selection days 2 and 3 (reads of this peptide / all reads for the bait, averaged over …; chain 1 S9D: 7.45e-05 average fractional NGS count over selection days 2 and 3 (reads of this peptide / all reads for the bait, averaged over …. As for chain 1 S9T, the screen value is 0.000558 average fractional NGS count over selection days 2 and 3 (reads of this peptide / all reads for the bait, averaged over …. In the case of chain 1 S9H it was 0.000148 average fractional NGS count over selection days 2 and 3 (reads of this peptide / all reads for the bait, averaged over …; in that of chain 1 S9M, 0.000276 average fractional NGS count over selection days 2 and 3 (reads of this peptide / all reads for the bait, averaged over …; in that of chain 1 S9N, 0.0022 average fractional NGS count over selection days 2 and 3 (reads of this peptide / all reads for the bait, averaged over …. In the case of chain 1 Y13T, the screen value is 0.000772 average fractional NGS count over selection days 2 and 3 (reads of this peptide / all reads for the bait, averaged over …. Next, chain 1 Y13K: 0.000613 average fractional NGS count over selection days 2 and 3 (reads of this peptide / all reads for the bait, averaged over …; chain 1 Y13S: 0.00787 average fractional NGS count over selection days 2 and 3 (reads of this peptide / all reads for the bait, averaged over …; chain 1 Y13L: 0.00182 average fractional NGS count over selection days 2 and 3 (reads of this peptide / all reads for the bait, averaged over …. In the case of chain 1 Y13H it was 0.000476 average fractional NGS count over selection days 2 and 3 (reads of this peptide / all reads for the bait, averaged over …; in that of chain 1 Y13V, 0.0012 average fractional NGS count over selection days 2 and 3 (reads of this peptide / all reads for the bait, averaged over ….

Turning to chain 1 Y13P, the screen value is 0.00124 average fractional NGS count over selection days 2 and 3 (reads of this peptide / all reads for the bait, averaged over …. In the case of chain 1 Y13I it was 0.00816 average fractional NGS count over selection days 2 and 3 (reads of this peptide / all reads for the bait, averaged over …. Regarding chain 1 Y13W, the screen value was 0.000603 average fractional NGS count over selection days 2 and 3 (reads of this peptide / all reads for the bait, averaged over …. Next, chain 1 Y13Q: 0.00224 average fractional NGS count over selection days 2 and 3 (reads of this peptide / all reads for the bait, averaged over …; chain 1 Y13N: 0.00437 average fractional NGS count over selection days 2 and 3 (reads of this peptide / all reads for the bait, averaged over …; chain 1 D2T: 0.00067 average fractional NGS count over selection days 2 and 3 (reads of this peptide / all reads for the bait, averaged over …. For the variant chain 1 D2P, the screen value is 0.00102 average fractional NGS count over selection days 2 and 3 (reads of this peptide / all reads for the bait, averaged over …. Next, chain 1 D2N: 0.000972 average fractional NGS count over selection days 2 and 3 (reads of this peptide / all reads for the bait, averaged over …; chain 1 D2Q: 0.00198 average fractional NGS count over selection days 2 and 3 (reads of this peptide / all reads for the bait, averaged over …. In the case of chain 1 D2S it was 0.00166 average fractional NGS count over selection days 2 and 3 (reads of this peptide / all reads for the bait, averaged over …. Next, chain 1 T1M: 0.000328 average fractional NGS count over selection days 2 and 3 (reads of this peptide / all reads for the bait, averaged over …; chain 1 T1H: 0.000767 average fractional NGS count over selection days 2 and 3 (reads of this peptide / all reads for the bait, averaged over …. As for chain 1 T1Q, the screen value is 0.00112 average fractional NGS count over selection days 2 and 3 (reads of this peptide / all reads for the bait, averaged over ….

Take chain 1 T1Y: the screen value was 0.000499 average fractional NGS count over selection days 2 and 3 (reads of this peptide / all reads for the bait, averaged over …. Consider chain 1 T1S, for which the screen value is 0.00255 average fractional NGS count over selection days 2 and 3 (reads of this peptide / all reads for the bait, averaged over …. For chain 1 T1L, the screen value was 0.000574 average fractional NGS count over selection days 2 and 3 (reads of this peptide / all reads for the bait, averaged over …. In the case of chain 1 T1V it was 0.00105 average fractional NGS count over selection days 2 and 3 (reads of this peptide / all reads for the bait, averaged over …; in that of chain 1 T1R, 0.00306 average fractional NGS count over selection days 2 and 3 (reads of this peptide / all reads for the bait, averaged over …. Next, chain 1 T1A: 0.00341 average fractional NGS count over selection days 2 and 3 (reads of this peptide / all reads for the bait, averaged over …. On to chain 1 T1N, for which the screen value was 0.00021 average fractional NGS count over selection days 2 and 3 (reads of this peptide / all reads for the bait, averaged over ….

Values taken from publication PMC12102759 (2025).
